Substitutions are numbered along the chain they refer to. Blank lines part the entries; values can stand above or below the binder they belong to.
Legend:
[1] = biological target: T1, human EGFRvIII protein on the cell surface (human, UniProt P00533 25-1210); assay: cell-based or functional assay
[2] = biological target: T2, human EGFRvIII-hFc protein (human, UniProt P00533 25-645); assay: ELISA, plate coated with human EGFRvIII-hFc, HRP secondary antibody, absorbance at 450 nm
T2 construct: extracellular domain; made in HEK293 cells, purified on protein A; also called immunogen A; hFc-tagged EGFRvIII protein; not shown: human IgG Fc fragment (hFc) of the pCpC vector
Description: The purified immunogen A (EGFRvIII-hFc) obtained in example 1 (for the preparation method, see step (I) in example 1) is diluted with PBS to a final concentration of 1.0 μg/mL, and then added to a 96-well ELISA plate at 100 μl/well. The plate is sealed with a plastic film and incubated at 4° C. overnight. The next day, the plate is washed twice with a plate washing solution [PBS+0.01% (v/v) Tween20], and added with a blocking solution [PBS+0.01% (v/v) Tween20+1% (w/w) BSA] for blocking 2 hours at room temperature. […] The plate is incubated for 2 hours at 37° C., and then washed 3 times with the plate washing solution [PBS+0.01% (v/v) Tween20]. The plate is added with an HRP (horseradish peroxidase) labeled secondary antibody (purchased from Sigma), incubated at 37° C. for 2 hours, and then washed 3 times with the plate washing solution [PBS+0.01% (v/v) Tween20]. The plate is added with 100 μl of TMB substrate/well, incubated for 30 minutes at room temperature, and then added with 100 μl of stopping solution (1.0N HCl)/well. A450 nm value is read using an ELISA plate reader (SpectraMax 384plus, purchased from Molecular Device), and the results are shown in FIG. 11 and table 19.

[3] = biological target: T3, human wild-type EGFR protein on the cell surface (human, UniProt P00533 25-1210); assay: FACS on normal human primary hepatocytes
T3 construct: whole, on cells; Endogenous on A431, HEB, U87MG cells and normal human primary hepatocytes; transfected on CHOk1-EGFR cells; The cell is named under assay; also called A431; HEB
Description: (§1) The preparation of U87MG-EGFRvIII required for FACS detection is as described in the preparation of the immunogen B in example 1. Normal human primary hepatocytes are purchased from BioreclamationIVT, and A431 tumor cells are purchased from ATCC. The recovered hepatocytes are directly used for FACS detection, and the recovered U87MG-EGFRvIII and A431 cells are subjected to an expanded culture to 90% confluence in a T-75 cell culture flask; the medium is sucked out, and the cells are washed twice with a HBSS buffer (Hanks Balanced Salt Solution) (purchased from Invitrogen), and then treated with an enzyme-free cell dissociation solution (Versene solution: purchased from Life Technology) and collected. The cells are washed twice with the HBSS buffer and are counted, and then the cells are diluted with the HBSS buffer to 2×10⁶ cells/ml, added with 1% goat serum blocking solution, with the percentage being the mass percentage, and incubated on ice for 30 minutes, and then centrifugally washed twice with the HBSS buffer. The collected cells are resuspended to 2×10⁶ cells/mL with an FACS buffer (HBSS+2% FBS, with the percentage being the volume percentage), added to a 96-well FACS reaction plate at 100 μL/well, then added with 100 μL/well of the purified EGFRvIII antibody (samples to be tested) obtained in example 12, and incubated on ice for 2 hours. The plate is centrifugally washed twice with the FACS buffer, added with 100 μL/well of a 1:1000 diluted fluorescence (Alexa 488) labeled secondary antibody (purchased from Invitrogen), and incubated on ice for 1 hour. The plate is centrifugally washed 3 times with the FACS buffer, added with 100 μL/well of a fixing solution [4% (v/v) paraformaldehyde] to resuspend the cells, and centrifugally washed twice with the FACS buffer after 10 minutes. The cells are resuspended in 100 μL of the FACS buffer, and the results are detected and analyzed by FACS (FACS Calibur, purchased from BD). Data analysis is performed by using the software (CellQuest) to obtain the mean fluorescence intensity (MFI) of the cells. Data is further analyzed by using the software (GraphPad Prism5) to perform data fitting and calculate EC50.

[4] = biological target: T3, human wild-type EGFR protein on the …; assay: FACS on A431 tumor cells
Description: as §1

[5] = biological target: T4, human EGFRvIII-hFc protein (human, UniProt P00533 25-645); assay: ELISA, EGFRvIII-hFc coated
T4 construct: extracellular domain; also called immunogen A; hFc-tagged EGFRvIII protein; not shown: human IgG Fc fragment (hFc) of the pCpC vector

[6] = biological target: T1, human EGFRvIII protein on the cell …; assay: FACS on U87MG-EGFRvIII cells
In short: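 U87MG-EGFRvIII, A431 and primary human hepatocytes (2×10⁶ cells/mL, goat-serum blocked) were incubated with antibody on ice for 2 h, then with an Alexa 488 secondary (1:1000) for 1 h and fixed in 4% paraformaldehyde. Mean fluorescence intensity was read by flow cytometry, and EC50 was derived by curve fitting.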

[7] = biological target: T3, human wild-type EGFR protein on the …; assay: FACS, MFI on A431 cells over MFI on normal primary hepatocytes
Description: as §1

EC50 (read off the curve) [2]: ~0.05 nM
B2: Chimeric antibody 75G7 (antibody, human IgG1, V domains shown)
VH: EVQLQQSGPELVKPGASVKIPCKASGYTFTDYNMDWVKQSHGKSLEWIGDINPNNGDTIYNQKFKGKATLTVDKSSSTAYMELRSLTSEDTAVYYCARGDYDGYYPVYYAMDYWGQGTSVTVSS
VL: ENVLTQSPAIMSASPGEKVTMTCRASSSVSSSYLHWYQQKSGASPKLWIFSTSNLAAGVPARFSGSGSGTSYSLTVSSVEAEDAATYYCQQYSGYPLTFGAGTKLELK
notes: also called c75G7C6; wild-type chimeric antibody c75G7C6

MFI [3]: 269 MFI
MFI [4]: 12400 MFI
EC50 [5]: 0.27 nM
Maximum OD450 value [5]: 2.97 OD450
EC50 [6]: 6.74 nM
Maximum mean fluorescence intensity [6]: 18900 MFI
Selective window (MFI A431/Hepatocytes) [7]: 46.2 fold
B3: Humanized antibody h75G7C6-16 (antibody, human IgG1, V domains shown)
VH: QVQLVQSGAEVKKPGASVKVSCKASGYTFTDYNMDWVKQAPGQGLEWIGDINPNNADTIYNQKFKGRVTLTVDKSTSTVYMELSSLRSEDTAVYYCARGDYDGYYPVYYAMDYWGQGTTVTVSS
VL: ENVLTQSPATLSLSPGERATLSCRASSSVSSSYLHWYQQKPGQSPRLLIFSTSNLAAGVPARFSGSGSGTDYTLTISSLEPEDFAVYYCQQYSGYPLTFGGGTKVEIK
notes: also called VH-g2/VL-g3

MFI [3]: 248 MFI
MFI [4]: 11500 MFI
EC50 [5]: 0.32 nM
Maximum OD450 value [5]: 3.03 OD450
EC50 [6]: 6.37 nM
Maximum mean fluorescence intensity [6]: 18500 MFI
Selective window (MFI A431/Hepatocytes) [7]: 46.2 fold
B4: Humanized antibody h75G7C6-14 (antibody, human IgG1, V domains shown)
VH: B3 VH
VL: B3 VL with S44A, V59I
notes: also called VH-g2/VL-g1

EC50 (read off the curve) [2]: ~0.01 nM
B6: Chimeric antibody 64F1 (antibody, human IgG1, V domains shown)
VH: QVQLQQSGAELARPGASVKMSCKASGYTFSSYTMHWAKQRPGQGLEWIGYINPSSGYTKYNQKFKDKATLTADKSSSTAYMQLSSLTSEDSIVYYCARGGGRGFAYWGQGTLVTVSA
VL: QIVLTQSPAIMSASPGERVTMTCSASSSVSYMYWYQQKPGSSPRLLIYDTSNLASGVPVRFSGSGSGTSYSLTISRVEAEDAATYYCQQWSSYSLTFGAGTKLELK
notes: also called 64F1F8 (chimeric)

Further lines, the binder ahead of its results:

B1: Chimeric antibody 75G7-MMAF (antibody, human IgG1, V domains shown)
VH: B2 VH
VL: B2 VL
modifications: MC-MMAF coupled after TCEP reduction (sites not given); DAR 3.40 for the antibody
IC50, nM; cell killing of U87MG-hEGFRvIII (CellTiter-Glo, 5 days) [1]: 0.27 nM

B5: Chimeric antibody 63A10-MMAF (antibody, human IgG1, V domains shown)
VH: B6 VH with S30I, Y32F, A37V, S54N, D73G, K74Q, I92A, A97T
VL: DILMTQSPSSMSVSLGDTVTITCHASQDINSNIGWLQQKPGKSFKALIYHGTNLEDGVPSRFSGSGSGADYSLTISSLESEDFADYYCVQYAQFPFTFGSGTKLEIK
modifications: MC-MMAF coupled after TCEP reduction (sites not given); DAR 3.10 for the antibody
IC50, nM; cell killing of U87MG-hEGFRvIII (CellTiter-Glo, 5 days) [1]: 0.01 nM

B7: Chimeric antibody 64F1-MMAF (antibody, human IgG1, V domains shown)
VH: B6 VH
VL: B6 VL
modifications: MC-MMAF coupled after TCEP reduction (sites not given); DAR 4.05 for the antibody
IC50, nM; cell killing of U87MG-hEGFRvIII (CellTiter-Glo, 5 days) [1]: 0.01 nM

B8: Chimeric antibody 7E5-MMAF (antibody, human IgG1, V domains shown)
VH: EIQLQQSGPELVKPGASVKVSCKASGYSFTDYNMYWVKQSHGKSLEWIGYVDPSNGGTNYNQKFKGKATLTVDKSSSTAFMHLNSLTSEDSAVYYCARGFFDYWGQGTTLTVSS
VL: DIVMTQSPSSLTVTAGEKVTMSCKSSQSLLNSGNQKNYLTWYQQKPGQPPKLLIYWASNRESGVPDRFTGSGSGKDFTLTISSVQAEDLAVYYCQNDYRYPVTFGAGTKLELK
modifications: MC-MMAF coupled after TCEP reduction (sites not given); DAR 3.51 for the antibody
IC50, nM; cell killing of U87MG-hEGFRvIII (CellTiter-Glo, 5 days) [1]: 0.04 nM
